{"source": "paper doi:10.1101/2025.09.11.675621", "about": "“Effects of Nanopore Confinement on the Conformational, Dynamical, and Self-Assembly Properties of an FG-Repeat Peptide” (bioRxiv, 2025)", "molecules": {"B1": {"name": "MBPA-C-FG30 (peptide)", "chain": "C(MBPA)FGNNKLTTFGSSTTSAPSFGTTSGGLFGNK-NH2", "modifications": "also: uniform 15N,13C labels at L6, S11, A16, F19, T22, G28 (LSAFTG) or G2, G10, G20, G29 (4G)"}}, "key": {"[1]": {"settings": "4° C; thermodynamic, from 7.1 mM (23 mg/ml) solutions in Bis-Tris buffer pH 6.5 (printed 0.2 mM), incubated four days with brief bath sonication once per day; centrifuged 16,000 x g 15 min, 0.1 μm filter; absorbance at 260 nm, triplicate", "description": "After incubation, solutions were centrifuged at 16,000 × g for 15 min, yielding visible pellets at each temperature. Supernatants were then passed through 0.1 μm centrifugal filters (Millipore Ultrafree, 0.5 ml volume) and diluted with H2O by factors of four. Peptide concentrations were determined from absorbance measurements at 260 nm, performed in triplicate, using an extinction coefficient of 1070 M^−1 cm^−1 that was determined from the absorbance of the initial solutions."}, "[2]": {"test": "Aggregation / fibril formation in free solution (TEM, solubility)", "format": "physicochemical", "settings": "10 mM peptide, Bis-Tris buffer pH 6.5, after six days of incubation at 4° C, 24° C or 37° C", "procedure": "Aggregated MBPA-C-FG30 for transmission electron microscopy (TEM) was prepared by dissolving 2.0 mg of purified and lyophilized MBPA-C-FG30-LSAFTG in 60 μl of 0.2 M Bis-Tris buffer (pH 6.5) to produce a 10 mM peptide solution. The solution was evenly divided into three 20 μl aliquots, each transferred into a 0.2 ml tube. The three tubes were incubated quiescently for 6 days at temperatures of 4° C, 24° C, and 37° C. After incubation, each sample was briefly vortexed, and 3 μl was withdrawn for subsequent TEM imaging, as described below.\nTransmission electron microscope (TEM) images were acquired with an FEI Morgagni microscope, operating at 80 kV, and a side-mounted Advantage HR camera (Advanced Microscopy Techniques). TEM grids were lacey carbon on 300 mesh copper (Electron Microscopy Sciences), upon which carbon films were deposited by flotation. Solutions containing aggregated MBPA-C-FG30 were diluted 100-fold in H2O, then adsorbed in 10 μl aliquots to glow-discharged grids for 90 s. Grids were blotted, rinsed with H2O, blotted, rinsed again, blotted, and stained with 2% w/v uranyl acetate for 15 s before final blotting and drying in air.\nFigure 5: TEM images of aggregated MBPA-C-FG30, negatively stained with uranyl acetate. […]"}, "[3]": {"test": "equilibrium solubility (centrifugation, filtration, absorbance of the supernatant at 260 nm); 7.1 mM solution in Bis-Tris buffer pH 6.5, 4 days at 4 °C with brief daily bath sonication; 16,000 x g 15 min, 0.1 um filter; monomer left over aggregates", "settings": "other: equilibrium solubility (centrifugation, filtration, absorbance of the supernatant at 260 nm)"}, "[4]": {"test": "equilibrium solubility (centrifugation, filtration, absorbance of the supernatant at 260 nm); 7.1 mM solution in Bis-Tris buffer pH 6.5, 4 days at 40 °C with brief daily bath sonication; 16,000 x g 15 min, 0.1 um filter; monomer left over aggregates", "settings": "other: equilibrium solubility (centrifugation, filtration, absorbance of the supernatant at 260 nm)"}, "[5]": {"test": "equilibrium solubility (centrifugation, filtration, absorbance of the supernatant at 260 nm); 7.1 mM solution in Bis-Tris buffer pH 6.5, 4 days at 24 °C with brief daily bath sonication; 16,000 x g 15 min, 0.1 um filter; monomer left over aggregates", "settings": "other: equilibrium solubility (centrifugation, filtration, absorbance of the supernatant at 260 nm)"}}, "note": "Like-named read-outs stand apart in the source and are kept apart here. Primed or numbered codes have the meaning given here. No end group written: not given here. *: point of attachment. MBPA″ = 4-maleimidobutylphosphonic acid, conjugated to the N-terminal cysteine, O=C1CC(*)C(=O)N1CCCCP(=O)(O)O; MBPA = 4-maleimidobutylphosphonic acid, O=C1CC(*)C(=O)N1CCCCP(=O)(O)O"}
{"molecule": "MBPA-C-FG30: C-FG30 with 4-maleimidobutylphosphonic acid conjugated to the N-terminal cysteine (C(MBPA″)FGNNKLTTFGSSTTSAPSFGTTSGGLFGNK-NH2; also: uniform 15N,13C labels at L6, S11, A16, F19, T22, G28 or at G2, G10, G20, G29 (FG30 numbering))", "values": [{"measurement": "equilibrium solubility", "setting": "[1]", "result": "4.5 ± 0.2", "unit": "mM"}, {"measurement": "morphology of aggregated material (negative-stain TEM)", "setting": "[2]", "result": "straight, unbranched assemblies"}]}
{"molecule": "B1", "values": [{"measurement": "equilibrium solubility", "setting": "[3]", "result": "4.5 ± 0.2", "unit": "mM"}, {"measurement": "equilibrium solubility", "setting": "[4]", "result": "1.92 ± 0.08", "unit": "mM"}, {"measurement": "equilibrium solubility", "setting": "[5]", "result": "1.60 ± 0.04", "unit": "mM"}]}
